Data taken from patent US20250361298A1.

Tests used:
[1] = biological target: Cynomolgus LY6G6D ectodomain fused to mouse IgG2A Fc (monovalent display, knob-in-hole) (cynomolgus); test: SPR, Biacore 8K+, cyno LY6G6D-mouse Fc captured by anti-mouse antibody on CM5, antibody as analyte 50-0.7813 nM, 25 C
[2] = biological target: T1, Human LY6G6D ectodomain fused to mouse IgG2A Fc (monovalent display, knob-in-hole) (human); test: SPR, Biacore 8K+, LY6G6D-mouse Fc captured by anti-mouse antibody on CM5, antibody as analyte 50-0.7813 nM, 25 C
T1 sequence (O95868 whole entry, looked up): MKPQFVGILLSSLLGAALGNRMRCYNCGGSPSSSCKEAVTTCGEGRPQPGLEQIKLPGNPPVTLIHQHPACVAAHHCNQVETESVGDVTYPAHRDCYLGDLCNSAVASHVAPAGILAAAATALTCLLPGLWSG

Cynomolgus LY6G6D ectodomain fused to mouse IgG2A Fc (monovalent display, knob-in-hole) (cynomolgus), sequence (O95868 other isoform, or with tags, fused parts or gaps limits assumed): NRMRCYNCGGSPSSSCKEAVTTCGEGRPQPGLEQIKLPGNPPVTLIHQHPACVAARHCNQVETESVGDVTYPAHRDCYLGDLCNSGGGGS

Kd [1]: 3.4 nM
koff [1]: 0.00038 s⁻¹
kon [1]: 112000 M⁻¹ s⁻¹
Kd [2]: 3.67 nM
kon [2]: 109000 M⁻¹ s⁻¹
B1: 20A12.QNTv12 (antibody, from another filing, V domains shown)
VH: EVQLLESGGGLVQPGGSLRLSCAASGFDFVNNAMIWVRQAPGKGLEWVSALSFADNTAYYATWASGRFTISRDSSKTTVYLQMNSLRAEDTAVYYCMRGDLWGPGTLVTVSS
VL: DIQMTQSPSTLSASVGDRVTITCQASESITRYLNWYQQKPGKAPKLLIYDASKLPSGVPSRFSGSGSGTEFTLTISSLQPDDFATYYCQSTSFRGRSYQNTFGGGTKVEIKR
